Like-named read-outs stand apart in the source and are kept apart here.
Tests used:
Experiment in all cases: two-hybrid library CCmax;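 note: natural log of median RNA to DNA barcode read ratio; higher means stronger binding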
4H967-AA = molecular target: T1, 4H967-AA
T1 chain: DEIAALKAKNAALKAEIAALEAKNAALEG

4H_APH = molecular target: T2, 4H_APH; conditions: mean of both orientations
T2 chain: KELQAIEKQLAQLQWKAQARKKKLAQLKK

4H918-AA = molecular target: T3, 4H918-AA
T3 chain: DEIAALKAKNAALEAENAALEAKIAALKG

4H3969-AA = molecular target: T4, 4H3969-AA; conditions: mean of both orientations
T4 chain: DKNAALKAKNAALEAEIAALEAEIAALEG

4H687-AA = molecular target: T5, 4H687-AA; conditions: mean of both orientations
T5 chain: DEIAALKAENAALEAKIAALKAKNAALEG

4H4001-AA = molecular target: T6, 4H4001-AA; conditions: mean of both orientations
T6 chain: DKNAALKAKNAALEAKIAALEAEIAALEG

4H58-AA = molecular target: T7, 4H58-AA; conditions: mean of both orientations
T7 chain: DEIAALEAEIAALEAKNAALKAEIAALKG

4H446-AA = molecular target: T8, 4H446-AA; conditions: mean of both orientations
T8 chain: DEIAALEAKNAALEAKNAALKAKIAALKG

4H797-AA = molecular target: T9, 4H797-AA; conditions: mean of both orientations
T9 chain: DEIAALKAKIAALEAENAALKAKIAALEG

4H3855-AA = molecular target: T10, 4H3855-AA
T10 chain: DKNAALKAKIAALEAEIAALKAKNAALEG

4H568-AA = molecular target: T11, 4H568-AA; conditions: mean of both orientations
T11 chain: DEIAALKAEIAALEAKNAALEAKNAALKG

4H953-AA = molecular target: T12, 4H953-AA; conditions: mean of both orientations
T12 chain: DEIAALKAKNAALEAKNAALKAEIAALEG

4H465-AA = molecular target: T13, 4H465-AA; conditions: mean of both orientations
T13 chain: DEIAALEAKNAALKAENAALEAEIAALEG

4H535-AA = molecular target: T14, 4H535-AA; conditions: mean of both orientations
T14 chain: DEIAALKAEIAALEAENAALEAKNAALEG

4H483-AA = molecular target: T15, 4H483-AA; conditions: mean of both orientations
T15 chain: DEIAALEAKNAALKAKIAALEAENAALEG

GCN2_T = molecular target: GCN2_T
4H464-AA = molecular target: T16, 4H464-AA; conditions: mean of both orientations
T16 chain: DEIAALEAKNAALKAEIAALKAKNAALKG

4H486-AA = molecular target: T17, 4H486-AA; conditions: mean of both orientations
T17 chain: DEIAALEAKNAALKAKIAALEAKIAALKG

4H3782-AA = molecular target: T18, 4H3782-AA
T18 chain: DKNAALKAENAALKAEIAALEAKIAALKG

4H63-AA = molecular target: T19, 4H63-AA; conditions: mean of both orientations
T19 chain: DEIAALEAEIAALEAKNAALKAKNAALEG

4H717-AA = molecular target: T20, 4H717-AA; conditions: mean of both orientations
T20 chain: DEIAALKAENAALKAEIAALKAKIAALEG

4H883-AA = molecular target: T21, 4H883-AA; conditions: mean of both orientations
T21 chain: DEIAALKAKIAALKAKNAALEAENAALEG

4H380-AA = molecular target: T22, 4H380-AA; conditions: mean of both orientations
T22 chain: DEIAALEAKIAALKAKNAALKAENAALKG

4H_GCN4 = conditions: mean of both orientations
4H_GCN4, sequence (chain, as listed by the source): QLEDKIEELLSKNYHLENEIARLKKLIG

4H_BCR = molecular target: T23, 4H_BCR; conditions: mean of both orientations
T23 chain: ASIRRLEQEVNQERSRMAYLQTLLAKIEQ

4H895-AA = molecular target: T24, 4H895-AA; conditions: mean of both orientations
T24 chain: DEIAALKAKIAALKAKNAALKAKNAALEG

4H3939-AA = molecular target: T25, 4H3939-AA; conditions: mean of both orientations
T25 chain: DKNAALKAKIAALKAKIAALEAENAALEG

4H780-AA = molecular target: T26, 4H780-AA; conditions: mean of both orientations
T26 chain: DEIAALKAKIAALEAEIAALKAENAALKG

4H3655-AA = molecular target: T27, 4H3655-AA; conditions: mean of both orientations
T27 chain: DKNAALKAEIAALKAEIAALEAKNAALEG

4H881-AA = molecular target: T28, 4H881-AA; conditions: mean of both orientations
T28 chain: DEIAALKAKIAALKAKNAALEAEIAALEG

4H993-AA = molecular target: T29, 4H993-AA; conditions: mean of both orientations
T29 chain: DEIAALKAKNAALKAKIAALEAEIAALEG

4H3844-AA = molecular target: T30, 4H3844-AA; conditions: mean of both orientations
T30 chain: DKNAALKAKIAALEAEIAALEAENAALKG

4H3606-AA = molecular target: T31, 4H3606-AA; conditions: mean of both orientations
T31 chain: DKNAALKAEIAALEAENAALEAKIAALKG

4H454-AA = molecular target: T32, 4H454-AA; conditions: mean of both orientations
T32 chain: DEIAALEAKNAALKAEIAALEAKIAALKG

4H794-AA = molecular target: T33, 4H794-AA; conditions: mean of both orientations
T33 chain: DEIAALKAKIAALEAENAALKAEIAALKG

4H566-AA = molecular target: T34, 4H566-AA; conditions: mean of both orientations
T34 chain: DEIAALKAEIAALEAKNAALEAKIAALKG

4H429-AA = molecular target: T35, 4H429-AA; conditions: mean of both orientations
T35 chain: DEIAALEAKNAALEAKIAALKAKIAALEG

4H678-AA = molecular target: T36, 4H678-AA; conditions: mean of both orientations
T36 chain: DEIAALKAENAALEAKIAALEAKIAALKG

4H3921-AA = molecular target: T37, 4H3921-AA; conditions: mean of both orientations
T37 chain: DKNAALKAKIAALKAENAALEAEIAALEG

4H605-AA = molecular target: T38, 4H605-AA; conditions: mean of both orientations
T38 chain: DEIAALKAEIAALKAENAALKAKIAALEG

4H3627-AA = molecular target: T39, 4H3627-AA; conditions: mean of both orientations
T39 chain: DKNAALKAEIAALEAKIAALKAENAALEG

4H48-AA = molecular target: T40, 4H48-AA; conditions: mean of both orientations
T40 chain: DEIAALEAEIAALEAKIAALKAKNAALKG

4H906-AA = molecular target: T41, 4H906-AA; conditions: mean of both orientations
T41 chain: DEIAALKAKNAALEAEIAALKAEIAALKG

4H3427-AA = molecular target: T42, 4H3427-AA
T42 chain: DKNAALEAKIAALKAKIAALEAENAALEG

Question: Which interaction score (4H967-AA; mean of both orientations) does the source give for DKNAALKAENAALKAEIAALEAKIAALKG [4H3782-AA] here?
Answer: -1.19

Question: What about the interaction score (4H_APH) of the same binder?
Answer: -2.26

Question: And the interaction score (4H918-AA; mean of both orientations)?
Answer: -0.968

Question: And the interaction score (4H3969-AA)?
Answer: -0.912

Question: And the interaction score (4H687-AA)?
Answer: -0.545

Question: What about the interaction score (4H4001-AA) of the same binder?
Answer: -0.482

Question: What about the interaction score (4H58-AA) of the same binder?
Answer: -1.38

Question: And the interaction score (4H446-AA)?
Answer: -1.07

Question: What about the interaction score (4H797-AA) of the same binder?
Answer: -1.45

Question: And the interaction score (4H3855-AA; mean of both orientations)?
Answer: -0.587

Question: What about the interaction score (4H568-AA) of the same binder?
Answer: -1.41

Question: What about the interaction score (4H953-AA) of the same binder?
Answer: -1.68

Question: And the interaction score (4H465-AA)?
Answer: -1.7

Question: What about the interaction score (4H535-AA) of the same binder?
Answer: -1.44

Question: What about the interaction score (4H483-AA) of the same binder?
Answer: -0.902

Question: What about the interaction score (GCN2_T) of the same binder?
Answer: -1.87

Question: And the interaction score (4H464-AA)?
Answer: -0.448

Question: What about the interaction score (4H486-AA) of the same binder?
Answer: 1.41

Question: And the interaction score (4H3782-AA)?
Answer: 0.893

Question: What about the interaction score (4H63-AA) of the same binder?
Answer: -1.44

Question: And the interaction score (4H717-AA)?
Answer: 1.02

Question: And the interaction score (4H883-AA)?
Answer: -1.27

Question: And the interaction score (4H380-AA)?
Answer: -1.52

Question: What about the interaction score (4H_GCN4) of the same binder?
Answer: -2.54

Question: And the interaction score (4H_BCR)?
Answer: -1.19

Question: What about the interaction score (4H895-AA) of the same binder?
Answer: -1.54

Question: And the interaction score (4H3939-AA)?
Answer: -0.413

Question: With DKNAALEAKIAALKAKIAALEAENAALEG [4H3427-AA] as the binder, how does the interaction score (4H780-AA) read?
Answer: -1.61

Question: What about the interaction score (4H967-AA; mean of both orientations) of the same binder?
Answer: -1.59

Question: And the interaction score (4H918-AA)?
Answer: -1.2

Question: And the interaction score (4H687-AA)?
Answer: -1.62

Question: What about the interaction score (4H4001-AA) of the same binder?
Answer: -1.06

Question: And the interaction score (4H3655-AA)?
Answer: 0.589

Question: What about the interaction score (4H881-AA) of the same binder?
Answer: -1.68

Question: And the interaction score (4H993-AA)?
Answer: -1.24

Question: What about the interaction score (4H797-AA) of the same binder?
Answer: -1.46

Question: And the interaction score (4H3855-AA; mean of both orientations)?
Answer: -1.01

Question: And the interaction score (4H3844-AA)?
Answer: 0.482

Question: And the interaction score (4H3606-AA)?
Answer: -0.74

Question: What about the interaction score (4H568-AA) of the same binder?
Answer: -0.257

Question: What about the interaction score (4H454-AA) of the same binder?
Answer: -0.567

Question: What about the interaction score (4H953-AA) of the same binder?
Answer: -1.66

Question: And the interaction score (4H794-AA)?
Answer: -1.26

Question: And the interaction score (4H566-AA)?
Answer: -1.35

Question: What about the interaction score (4H429-AA) of the same binder?
Answer: -1.37

Question: What about the interaction score (4H3782-AA; mean of both orientations) of the same binder?
Answer: -0.991

Question: What about the interaction score (4H678-AA) of the same binder?
Answer: -1.47

Question: And the interaction score (4H717-AA)?
Answer: -1.29

Question: What about the interaction score (4H3921-AA) of the same binder?
Answer: -1.79

Question: And the interaction score (4H883-AA)?
Answer: -1.7

Question: And the interaction score (4H605-AA)?
Answer: -1.66

Question: What about the interaction score (4H3627-AA) of the same binder?
Answer: -0.773

Question: What about the interaction score (4H48-AA) of the same binder?
Answer: 1.18

Question: What about the interaction score (4H906-AA) of the same binder?
Answer: -1.69

Question: What about the interaction score (4H3427-AA) of the same binder?
Answer: -0.802

Question: Which results are given for DKNAALKAKIAALEAEIAALKAKNAALEG [4H3855-AA]?
Answer: interaction score (4H967-AA): -1.53; interaction score (4H918-AA; mean of both orientations): -2.01; interaction score (4H687-AA): -1.5; interaction score (4H4001-AA): -0.86; interaction score (4H797-AA): -1.29; interaction score (4H3855-AA): 1.05; interaction score (4H568-AA): -1.35; interaction score (4H953-AA): -1.89; interaction score (4H717-AA): -1.18; interaction score (4H883-AA): -1.77
